Experimental findings from paper PMC3919607 (Nucleic Acids Research, 2013) are described below.

The chains are these.
B2: Snu13p (recombinant, GST cleaved off) (natural protein, S. cerevisiae)
chain: GPMSAPNPKAFPLADAALTQQILDVVQQAANLRQLKKGANEATKTLNRGISEFIIMAADCEPIEILLHLPLLCEDKNVPYVFVPSRVALGRACGVSRPVIAASITTNDASAIKTQIYAVKDKIETLLI

For assay [1], the target named is T1, His6-tagged WT Snu13p (co-expression) (S. cerevisiae, UniProt P39990 1-126).
T1 sequence (looked up): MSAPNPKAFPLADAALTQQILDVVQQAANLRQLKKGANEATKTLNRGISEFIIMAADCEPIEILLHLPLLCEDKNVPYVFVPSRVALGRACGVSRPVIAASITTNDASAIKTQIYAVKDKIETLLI
As to the kind of experiment: pull-down.

Assay [2] addresses B2. Nature of the assay: ITC.
The target in another assay is T2, His6Rsa1p230–381 (S. cerevisiae, UniProt Q08932 230-381).
T2 sequence (looked up): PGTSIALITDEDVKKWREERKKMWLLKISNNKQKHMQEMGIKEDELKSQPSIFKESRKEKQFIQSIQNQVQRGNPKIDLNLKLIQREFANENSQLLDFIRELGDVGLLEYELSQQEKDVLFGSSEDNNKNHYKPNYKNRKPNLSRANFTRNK
Nature of the assay: native gel or EMSA. On the technique in general: In EMSA bound probe runs differently from free probe, usually more slowly.

The stoichiometry N is the number of molecules, sites or subunits per partner or assembly. For orientation: Kd means the free concentration of one partner at which half of the binding sites on the other are occupied at equilibrium, for simple one-to-one binding.

B1: full-length Rsa1p (co-expression) (natural protein, S. cerevisiae, UniProt Q08932 1-381, looked up)
chain: MNYNNFENSKGDGHSRLPKPTYSGTLSDGYDESKIKRQKTDSAFNAAYSPHMYPNSPYYEGSWNTGYTPQLHHVAPHNQYFHPIQPSTQYNYTSPPNYTENYIPPVHQNISYAPALNLQKWPSSYCENTQALKNDKDYQTSISYEDVAIPTVKEIQLIEKNRGKDTFMNEISPVPSSKDQASAEPTEIPRKDPELANSNAEDDHNNLGLEDDDRDEQLESEGLGKVVLVPGTSIALITDEDVKKWREERKKMWLLKISNNKQKHMQEMGIKEDELKSQPSIFKESRKEKQFIQSIQNQVQRGNPKIDLNLKLIQREFANENSQLLDFIRELGDVGLLEYELSQQEKDVLFGSSEDNNKNHYKPNYKNRKPNLSRANFTRNK
B1: the “stoichiometry N” value in assay [1] was ~1.

As to TDEDVKKWREERKKMWLLKISN (peptide, UniProt Q08932 238-259, looked up) [synthetic peptide Rsa1p238–259], the Kd in assay [2] was found to be 18 ± 1 µM. Consider B2, for which the binding result in the assay with His6Rsa1p230–381 is “binds”.
